B1: EQALMPWIWYWKDPNGS peptide (peptide)
chain: EQALMPWIWYWKDPNGS
modifications: preformed fibrils
B2: ELAQMGPEGMGLEDPNGS peptide (peptide)
chain: ELAQMGPEGMGLEDPNGS
modifications: preformed fibrils
B3: PYYYWKDPNGS peptide (peptide)
chain: PYYYWKDPNGS
modifications: preformed fibrils
B4: ELAQMPYYYWKDPNGS peptide (peptide)
chain: ELAQMPYYYWKDPNGS
modifications: preformed fibrils
B5: PYYYWKELAQM peptide (peptide)
chain: PYYYWKELAQM
modifications: preformed fibrils

In the assay the target is alpha-synuclein (Homo sapiens, UniProt P37840). The experiment in a line: SPR. In general terms: Surface plasmon resonance follows binding to a sensor surface in real time, without labels.
As for B1, the Kd (as a rule, a measure of binding affinity in units of concentration) worked out at 28.4 µM.
With B2 the figure was 194 µM; with B3, 39.2 µM; with B4, 133 µM.
The result for B5 reads 55.2 µM.

The values above are taken from PMC11591946 (2024).
